Reference: article PMC2941470

Target: endogenous DDX3X from HuH-7 cells (human (endogenous in HuH-7)) (UniProt O00571)
Chain of UniProt O00571 (O00571 whole entry): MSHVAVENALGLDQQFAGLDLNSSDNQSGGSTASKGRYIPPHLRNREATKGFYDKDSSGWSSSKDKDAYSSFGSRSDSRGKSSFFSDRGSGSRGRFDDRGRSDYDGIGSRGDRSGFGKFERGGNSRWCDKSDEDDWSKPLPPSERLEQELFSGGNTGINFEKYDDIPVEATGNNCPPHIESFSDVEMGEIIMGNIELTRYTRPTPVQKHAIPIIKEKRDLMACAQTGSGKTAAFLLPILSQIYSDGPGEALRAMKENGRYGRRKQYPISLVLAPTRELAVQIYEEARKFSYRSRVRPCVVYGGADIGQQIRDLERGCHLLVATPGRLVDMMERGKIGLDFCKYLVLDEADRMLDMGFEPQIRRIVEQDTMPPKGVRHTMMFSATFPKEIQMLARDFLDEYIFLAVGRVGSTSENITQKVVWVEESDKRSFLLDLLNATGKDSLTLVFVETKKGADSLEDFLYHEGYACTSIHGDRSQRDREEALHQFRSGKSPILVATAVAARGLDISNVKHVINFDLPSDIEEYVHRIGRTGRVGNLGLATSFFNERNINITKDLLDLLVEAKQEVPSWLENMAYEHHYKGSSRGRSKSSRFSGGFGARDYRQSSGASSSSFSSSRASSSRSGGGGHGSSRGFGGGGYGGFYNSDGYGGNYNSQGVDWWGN

Work on “GFP fusion to HCV core protein residues 16–36 (peptide)” yielded a level of HCV replicon NNeo/C-5B RNA in HuH-7 cells 48 h after transient transfection (Northern blot) of 50%.
